Reference: a protein production outcome set (Wang et al. 2014)

Assay: label from the status in PepcDB records

With “MFDNDRLLLRVLLFGLLGASLWVLAPFWSALFWAAVLAFASWPLMRMLTRLLGGRESLAAGLLTLGWIVLVALPLIWLGFGLADNVRSLMELLKNLQVEGLPPPPSWMAGVPLIGDRLIGWWDSIDQQGVAFFYVLKPYVGEVGNWLLARSAKIGGGILELVLSLILIFFFYRDGPRLESIVHRALERLIGNRAEHYRDLVAGTVQRVVNGVIGTAAAQALLAWIGFMIAGVPGAMLLGLLTFACSLLMVPPLVWGPATAWLFFKGDYGHGVFLGLWGFFIISGVDNILKPYLISRGGNLPLVVVLLGVFGGLLAFGFMGLFLGPILLAVAYNLLSDWIASTPRTPPGEGRGPDA” the protein production was “failed”.
For “MDITNIKEMNYEEVFSITITVDKPILIGQDDIVGRRQLIPIISGKVSGNNFNGKVLPGGIDSQIVRPDGKCELSARYAIRLDDGAAIYIENNGIRTVPDEYIEAVKSGEFVDPNAYYFRTIPTFETYSPKYKWMMNHIFVCCASRLPENVLLKFYKIS”, the protein production was “not failed”.
In the case of “MNINVKDIIADSHLAFLNQENETALRLARQAISLAPDNPDAYRCAGNACMSLDRYDEAIEYYRTAVKYDPDNGNRYYDLGFALASAERFSDALKNLAKAEELGCTPENLVQLYNLLGILCFDIGRYDDALVNLNKAEKLIGIDVDILKRKAVIYGIKNDIKNGLMTANQIKLVTPSEYTGYQIAFKLLVQAKRLDEAEKELERARKYASPTMDFYFDYMTLELEKYKTDNDKEHFKTALGMIEKALKTVKPTVKEVVESYINAAEIYLQLEDADRAIECLNAAQNPIWAYNNGFDVVVRNYEPVTLTEYDIEDMIEADRKKIEEQFGDYGFEEMVESIEPDEEGNRDYLTVIEDEVKSDAKEDSEVYKLDESEKVEYSSDNIDQINRLYVGAYTVKKDFEKVIEYSRKLQASENTYSVYLGKYTEANAMKELGLPDFAAKYEEIIKFFRNAMIKDPTDLTAVTFRVQCYIDIGQYDEAEQLCSLLTKEVRNSFMEKIKKAKSGGEQH”, the protein production is reported as “failed”.
With “MHIKIDDLTGRQVVSLVNEHLHSMTLMSPPESIHALGLEKLRGPEITFWSAWEGDELAGCGALKELDTRHGEIKSMRTSASHLRKGVAKQVLQHIIEEAEKRGYERLSLETGSMASFEPARKLYESFGFQYCEPFADYGEDPNSVFMTKKLLEHHHHHH” the protein production was “not failed”.
In the case of “MLVALITLAFIHFCALITPGPDFFLVSQTAVSRSRKEAMLVVAGITAGVMFWASLALMGLNIIFEKMAWLKQGLLIAGGLYLCWLGYQMLRSAFSKNQQEEVTTVELPKAPYLFFMKGLLTNLSNPKAVIYFGSVFSLFLANPQLDQVHWLLFIIVSVETILWFCFVTFIFSLPSFRAAYRNFSKWIDGISGGIFTVFGIFLIGNR”, the protein production is reported as “failed”.
For “MKTLGNILWFIFGGFFGGLSWLFAGVIWCITIIGIPIGLQCFKLAGLSFWPFKKRVVYSDSGVSLVVNIIWLIISGLPLAIGHCISGLFLCLTIIGIPFGQQSFKLAKLALMPFGARVVSTNDFYFE”, the protein production was “failed”.
In the case of “MPVRASIEPLTWENAFFGVNSAIVRITSEAPLLTPDALAPWSRVQAKIAASNTGELDALQQLGFSLVEGEVDLALPVNNVSDSGAVVAQETDIPALRQLASAAFAQSRFRAPWYAPDASGRFYAQWIENAVRGTFDHQCLILRAASGDIRGYVSLRELNATDARIGLLAGRGAGAELMQTALNWAYARGKTTLRVATQMGNTAALKRYIQSGANVESTAYWLYR”, the protein production is reported as “not failed”.
With “MAPLSFEVRSVSVLVLVLAVSAAFCLGIGFVLQQNAAQHAPLSDFLSPRLLLDLMHVRRWLGGIGFMVVGMVLGAVALAHGELSLVEPLLATNLLFALGLSRRQTKQPLGRQGWAGLALLAGGVTAFIVAGQPTGGDAVTNPLRHWVIIGVMVGFALLLTTYAKQSRLSAAPVLLSLAAGLLYGVQDALTRVSGQRFSEGGWPELVTGWQPYAVLALGVTGLVLVQSAFETAPLRMSLPALTAAQPLAGIVCGVGFLGDQLRTDTGALAWEAAGLAAVVLGIVLLGLHPAMPRGSAEAERQRDLQPH” the protein production was “failed”.
In the case of “MKPLRTRFLRWRGAAAGGLLAGALLASPAWAAKQADWWVYVHNDKARDIGALLAAGADPNVRYDNGQPAIMRAVVDNAWEVFDVLAANRRTDLNAENPAGETPLMYLAVAGQTERAQALIARGAQVNRLGWTPLHYAASKGRLETARMLLGKQALVNAPSPDGTTPLMMAAYSGDRRMVQLLLDAGADITTRNLKGMSAADWAAFGKSEALARELKPMIARAEAERQARHGAVATSKLAPAAETPPTAQPAAASAAASQPGEGRSLSGVSGVRLNSYD”, the protein production is reported as “failed”.
With “HVLYSNILNRDVTISIYLPESYNQLVKYNVILCFDGLDFLRFGRIQRTYESLIKEARIDDAIIVGFHYEDVDKRREEFHPQGSRSHLTIQSVGKEILPFIDSTFSTLKVGNARLLVGDSLAGSIALLTALTYPTIFSRVAMLSPHSDDKVLDKLNQCANKEQLTIWHVIGLDEKDFTLPTNGKRADFLTPNRELAEQIKKYNITYYYDEFEGGHQWKDWKPLLSDILLYFLRKNTDDQHYE” the protein production was “failed”.
With “MTSREDEIRDFLATHGYADWNRTPLAGDASSRRYQRLRSPTGAKAVLMDWSPEEGGDTQPFVDLAQYLRNLDISAPEIYAEEHARGLLLIEDLGDALFTEVINNDPAQEMPLYRAAVDLLIHLHDAQTPELARLDPETLSEMTRLAFSEYRYAILGDAAEDNRKRFEHRFAQILSAQLEGDMVFVHRDFHAQNLLWLPEREGLARVGVIDFQDAKLGHRAYDLVSLLQDARRDVPAQVEAQMIDHYIQATGVDESHFRSAYAVIAVQRNMRILGIFARLSQRFGKRHYIEFVPRVWAHFERGLAHPALASAAEEILNALPAPAPEVLERLRA” the protein production was “not failed”.
In the case of “MWIFFRFISGIYLKNFFIIFFSLLGFYCGIDLLLNFKDLPKAANLDLLYVMFLSFSAVPYVLPISLIFALVVSLISMIRANEFVSLYALGLSRNYVILFPFLWALFFCCIYIGLNFTSFAYANDYKRNILKNGTIMNQSGEVFLKFNNNFVYISKINNGQNSAQNIKIFNINDLNLSSFVSAKNAYFEGESWILRDGNITLLPKNYELANDGLKIQDFSELKSLEGFKPKIIEGVASNSDYSISDALESFELFKAQNVNTDALKINLYKFVFTPFFAPFLMLIMYYFFPVIARFFNLAIVTFMAFVVTLMIWGVLFLLTRLSENSVIASEIGIVVPIIILGCLSAYMYYKHR”, the protein production is reported as “failed”.
With “KVKIPYQKYKLDNGLTVILAPEGSDPLVHVDVTYHVGSAREEIGKSGFAHFFEHMMFQGSENVGDQEHFKIITEAGGTLNGTTNRDRTNYFETVPANQLEKMLWLESDRMGFLLDAVSQRKFEIQRSTVKNERAQRYDNRPYGLIWERMSEALYPEGHPYSWQTIGYVEDLERVDVNDLKAFFLRWYGPNNATITIGGDLDVEQTLAWVNKYFGSIPRGP” the protein production was “failed”.
With “TAGKKAAMDRLSTQEGIISALAIDQRGALKKMIKALDVEPTDAQIETFKELVSKELTPYASAILLDPEYGLPAAKARDTEAGLLLAYEKTGYDATTPGRLPDLLADWSVLRLKEEGADAIKFLLYYDVDEDPEINHQKHVFIERLGSECAEEDLPFYLELVSYDAQIADATSLEYAKVKPHKVNEMMKEFSKPQYKVDVLKVEVPVNMNFVEGFAPAETAYTKEEAANYFLEQSQATDLPFIFLSAGVSTELFQETLRFAKEAGSTFNGVLCGRATWKNGVKPFVEAGETAACDWLKTEGRENIESLNEVIAATASSWHAKVQVNE” the protein production was “failed”.
In the case of “YLSPMAHWLMPVAGGPNIEKMLNLLPALFSLYPEENNPQLLISKVYLPRQSQRYDPFYDLKNLAERWSEQLQRPIIPIPVCSTSIADALSDLAEMRECAAIVLGASREGLLKNVIHGNLPTQIASQTNTTVFIFRGPVDSPNEEAIVPPLAPDFGLDE”, the protein production is reported as “failed”.
For “MTSPKHPPIRRDWLSKILAGTLLGFTLALGCSGLLVLALPQLPLPVKAQLAMWVVMPLWLGVLSGCFAFRDGRRAWLWLGGATALVLDLLVVARLS”, the protein production was “failed”.
For “MGGAGLDNAQNVRNQTQNQTKPIHVSDRNEAFNRHNENEQFGYVRYQKEQFDGEQQKTPVMNREETAHMISSLTVQLPHIQDAATLVTDREALVVYKTDSKNRELTADQVKKTAASVIPRYYHVYISDNPNHMQSVENYSNLGSGSRDIREIMSGTIQEMKTSPQGSPVSENENANGETRQDMKIDRNDKNARLEHHHHHH”, the protein production was “not failed”.
In the case of “MKARQQKYCDKIANFWCHPTGKIIMSLAGKKIVLGVSGGIAAYKTPELVRRLRDRGADVRVAMTEAAKAFITPLSLQAVSGYPVSDSLLDPAAEAAMGHIELGKWADLVILAPATADLIARVAAGMANDLVSTICLATPAPVAVLPAMNQQMYRAAATQHNLEVLASRGLLIWGPDSGSQACGDIGPGRMLDPLTIVDMAVAHFSPVNDLKHLNIMITAGPTREPLDPVRYISNHSSGKMGFAIAAAAARRGANVTLVSGPVSLPTPPFVKRVDVMTALEMEAAVNASVQQQNIFIGCAAVADYRAATVAPEKIKKQATQGDELTIKMVKNPDIVAGVAALKDHRPYVVGFAAETNNVEEYARQKRIRKNLDLICANDVSQPTQGFNSDNNALHLFWQDGDKVLPLERKELLGQLLLDEIVTRYDEKNRR”, the protein production is reported as “failed”.
For “MKLYKLLILDIDGTLRDEVYGIPESAKHAIRLCQKNHCSVVICTGRSMGTIQDDVLSLGVDGYIAGGGNYIQYHGELLYNQSFNQRLIKEVVCLLKKREVAFSIESQEKVFMNQKAKEIFETMNQLKGTNSCINKQHIQEKITYENNIEEYKSQDIHKICLWSNEKVFDEVKDILQDKMELAQRDISSQYYEIIQKDFHKGKAIKRLQERLGVTQKETICFGDGQNDIVMFQASDVTIAMKNSHQQLKDIATSICEDIFDNGIYKELKRRNII”, the protein production was “not failed”.
With “MTAYIIVGLTPKDAEKLQQYGARVASTLAKYSGEVLVKGSVEQLHGKFEHKAQVILEFPSREDAYNWYHSEEYQALISTRDLGMDSQFQLIG” the protein production was “not failed”.
For “MILSMSIFGSIGFFSVQTGLPSFELVFVRCICATIFLALCWLVTGQYKSEQWNKKEIMQILACGVFLVFNWVFLFKAFEVMSITIAISVYHLAPIIVLMIGSIVFKERLTMFAVLSIVICFIGTVLVAGVDGSLSLEKLMSSGMVWALLAALFYAFTTLLGKGIQHTSAYAMTFLQTFLGIFLLLPFVDFGKFQGLTEMNWMMITATGLIHTGFVYYLFFDSLRDLSTRMISVLVFLDPAVAILLDTVFTGFRPTSMQVVGIVLIFVGMAFTFRKTKDEEIAVKEKLYS”, the protein production was “failed”.
In the case of “MKRWIAIILIALMPAAQAGKAAKVTLVVDDVPVVQVLQALAEQERQNLVVSPDVSGTLSLHLTDVPWKQALQTVVNSAGLVLRQEGNILHVHSQAWQKEHSARQDAERLRLQANLPLENRSISLQYVDTGELAKAGEKLLSAKGTIMVDKRTNRLLLRDNRAALAELEKWVSQMDLPVAQVELAAHIVTINEKSLRELGVKWTLADATQAGAVGDVTTLSSDLSVAAATSRVGFNIGRINGRLLDLELSALEQKQQLDIIASPRLLASHLQPASIKQGSEIPYQVSSGESGATSVEFKEAVLGMEVTPTVLQKGRIRLKLHISQNVPGQVLQQADGEVLAIDKQEIETQVEVKSGETLALGGIFSRKNKSGSDSVPLLGDIPWLGQLFRHDGKEDERRELVVFITPRLVATE”, the protein production is reported as “failed”.
In the case of “MYETFMKRAIELAKKGLGRVNPNPPVGAVVVKDGRIIAEGFHPYFGGPHAERMAIESARKKGEDLRGATLIVTLEPCDHHGKTPPCTDLIIESGIKTVVIGTRDPNPVSGNGVEKFRNHGIEVIEGVLEEEVKKLCEFFITYVTKKRPFVALKYASTLDGKIADHRGDSKWITDKLRFKVHEMRNIYSAVLVGAGTVLKDNPQLTCRLKEGRNPVRVILDRKGVLSGKVFRVFEENARVIVFTESEEAEYPPHVEKALSDCSVESILRNLYERDIDSVLVEGGSKVFSEFLDHADVVFGFYSTKIFGKGLDVFSGYLSDVSVPPKFKVVNVEFSDSEFLVEMRPCSRE”, the protein production is reported as “not failed”.
With “QSGMKAELLDHGTAPVPSELAEYFPQVPEVALYHRLRCDEKTGEPTNHARNYVRPELAGRIDLDDLARWPMTKVLRDVVGMDISRITDTVEARLADPETARLLEVPLLSPILHYTGITYDLEGRVLDVAVIHYRGDRFSFTVTLDAT” the protein production was “failed”.
